The values that follow are results of earlier work, collected in article PMC2654521.

Data set [1] deals with N-type calcium channel (Rattus norvegicus) (UniProt Q02294). Nature of the data set: radioligand.
The target is the same in data set [2]. Description: radioligand. This is another data set of the same source.

“And” between values parts separate entries of the source, which are not always exact repeats. Identical values can stand only once. Like-named read-outs stand apart in the source and are kept apart here.

Sequence of UniProt Q02294 (Q02294 whole entry): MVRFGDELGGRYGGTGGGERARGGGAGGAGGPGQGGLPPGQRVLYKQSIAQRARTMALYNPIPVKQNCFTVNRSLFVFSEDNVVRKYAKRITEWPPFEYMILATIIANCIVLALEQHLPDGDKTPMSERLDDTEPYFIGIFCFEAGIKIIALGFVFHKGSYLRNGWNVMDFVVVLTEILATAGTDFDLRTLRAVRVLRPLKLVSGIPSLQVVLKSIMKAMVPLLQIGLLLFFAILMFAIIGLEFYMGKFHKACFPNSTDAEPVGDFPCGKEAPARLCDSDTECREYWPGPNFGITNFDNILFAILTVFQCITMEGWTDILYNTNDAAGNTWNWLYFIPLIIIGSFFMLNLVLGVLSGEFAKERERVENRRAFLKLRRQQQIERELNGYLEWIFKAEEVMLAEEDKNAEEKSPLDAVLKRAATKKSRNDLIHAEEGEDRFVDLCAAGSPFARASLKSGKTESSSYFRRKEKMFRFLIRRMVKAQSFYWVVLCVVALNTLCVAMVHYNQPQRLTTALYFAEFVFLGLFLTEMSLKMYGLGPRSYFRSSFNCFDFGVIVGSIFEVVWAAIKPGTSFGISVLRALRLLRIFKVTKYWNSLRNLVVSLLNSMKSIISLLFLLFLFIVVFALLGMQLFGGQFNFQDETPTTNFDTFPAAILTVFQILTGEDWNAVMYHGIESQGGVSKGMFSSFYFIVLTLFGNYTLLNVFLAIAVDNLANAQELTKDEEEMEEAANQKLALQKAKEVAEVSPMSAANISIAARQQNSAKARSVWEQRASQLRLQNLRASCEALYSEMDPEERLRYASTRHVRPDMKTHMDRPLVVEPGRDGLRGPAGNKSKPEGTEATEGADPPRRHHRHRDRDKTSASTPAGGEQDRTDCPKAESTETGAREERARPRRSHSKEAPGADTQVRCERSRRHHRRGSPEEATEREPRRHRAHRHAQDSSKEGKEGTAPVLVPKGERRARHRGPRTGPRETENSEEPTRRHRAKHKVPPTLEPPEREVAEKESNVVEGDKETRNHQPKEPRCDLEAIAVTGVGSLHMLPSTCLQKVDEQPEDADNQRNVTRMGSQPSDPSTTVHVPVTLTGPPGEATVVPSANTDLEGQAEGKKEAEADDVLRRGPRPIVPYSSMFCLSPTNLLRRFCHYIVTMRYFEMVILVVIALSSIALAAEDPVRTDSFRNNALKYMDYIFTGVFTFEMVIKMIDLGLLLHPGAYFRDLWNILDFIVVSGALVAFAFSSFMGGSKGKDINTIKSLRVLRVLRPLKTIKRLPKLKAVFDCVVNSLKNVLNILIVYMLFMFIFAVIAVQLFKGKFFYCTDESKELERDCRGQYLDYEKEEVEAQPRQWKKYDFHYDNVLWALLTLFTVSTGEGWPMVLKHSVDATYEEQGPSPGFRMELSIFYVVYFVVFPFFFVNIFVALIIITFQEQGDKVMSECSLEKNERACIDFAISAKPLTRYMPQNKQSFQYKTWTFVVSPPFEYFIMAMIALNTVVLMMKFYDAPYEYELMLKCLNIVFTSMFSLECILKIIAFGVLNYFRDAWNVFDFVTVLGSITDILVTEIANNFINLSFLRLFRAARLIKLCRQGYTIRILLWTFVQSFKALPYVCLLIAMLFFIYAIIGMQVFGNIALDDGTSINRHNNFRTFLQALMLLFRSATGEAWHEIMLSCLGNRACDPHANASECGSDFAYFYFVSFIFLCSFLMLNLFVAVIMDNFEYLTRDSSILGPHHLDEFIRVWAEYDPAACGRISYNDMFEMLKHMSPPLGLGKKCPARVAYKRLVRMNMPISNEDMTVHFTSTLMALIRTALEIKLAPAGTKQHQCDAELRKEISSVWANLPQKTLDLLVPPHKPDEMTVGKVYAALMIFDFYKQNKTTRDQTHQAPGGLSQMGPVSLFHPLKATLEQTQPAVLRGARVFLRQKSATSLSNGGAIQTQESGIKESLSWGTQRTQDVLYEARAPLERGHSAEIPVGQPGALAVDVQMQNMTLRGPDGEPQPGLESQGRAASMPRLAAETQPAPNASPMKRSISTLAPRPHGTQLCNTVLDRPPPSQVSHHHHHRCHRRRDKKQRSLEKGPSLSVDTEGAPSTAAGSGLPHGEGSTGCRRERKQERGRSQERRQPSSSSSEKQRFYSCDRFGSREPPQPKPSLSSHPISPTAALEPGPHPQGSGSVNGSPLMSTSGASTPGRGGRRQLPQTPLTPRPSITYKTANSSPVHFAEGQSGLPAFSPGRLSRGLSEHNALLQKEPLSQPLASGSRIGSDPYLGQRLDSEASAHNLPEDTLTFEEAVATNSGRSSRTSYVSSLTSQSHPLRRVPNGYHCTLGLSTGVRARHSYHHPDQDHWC

As a reminder, the Kd is a measure of binding affinity in units of concentration. By Ki is commonly meant the dissociation constant of the complex between target and ligand, obtained from inhibition or displacement. Regarding “ziconotide (omega-conotoxin MVIIA) (from UniProt P05484)”, in data set [1], the Kd is 1.1 pM and 9 pM; the Ki is 1 pM. For the same substance, the Kd in data set [2] is 7 pM and 18 pM.
